Data as given in patent US20200095590A1, “TRANSCRIPTION SYSTEM” (AUTOLUS LIMITED, priority 2016, published 2020).

What was measured:
streptavidin = streptavidin (Streptomyces avidinii, UniProt P22629); settings: biotin mimicking peptide binding streptavidin; read-out: affinity; cited from earlier work
T cells = experiment: Phenotype assay: memory markers by flow cytometry on CAR-TF T cells after co-culture with CD19 positive SKOV3 target cells; type: cell-based; settings: for CD62L expression / CD27 expression: co-expressed with CAR (HD37); for proportion of naive and central memory cells (CM): co-expressed with anti-CD19 CAR (HD37), day 0 (post-transduction) and day 7 (6 days after 24 hour co-culture), CD4+ and CD8+ subpopulations
Description: A bicistronic construct was expressed in BW5 T cells as a single transcript which self-cleaves at the 2A site to yield a chimeric antigen receptor (CAR); and a transcription factor (TF). Control constructs were also generated which lack the 2A site and the transcription factor (“CAR-only”) or lack the CAR and 2A site (“TF-only”).
The CAR was an anti-CD19 CAR comprising an endodomain derived from CD3 zeta and from the co-stimulatory receptor 41BB.
T cells expressing the various CAR-TF combinations, together with the relevant CAR-only and TF-only controls were co-cultured with CD19 positive SKOV3 target cells for 24 hours before recovering and culturing the T cells until day 7. The expression of the following memory markers was analysed by flow cytometry at day 0 of the co-culture and day 7, to see whether cells expressing factors that bias them towards central memory are more nave post-transduction and remain more nave upon stimulation with antigen-bearing target cells.
Memory Markers—CCR7, CD45RA, CD62L, CD27
The cells were gated on CAR-expression (via RQR8 transduction marker) and various T cell and T-cell subset markers (CD3 and CD8) depending on the sub-population of interest.

[1] = 6 days after a 24 hour co-culture with target cells, CD4+ and CD8+ T cells

Sequence of streptavidin (P22629 25-183): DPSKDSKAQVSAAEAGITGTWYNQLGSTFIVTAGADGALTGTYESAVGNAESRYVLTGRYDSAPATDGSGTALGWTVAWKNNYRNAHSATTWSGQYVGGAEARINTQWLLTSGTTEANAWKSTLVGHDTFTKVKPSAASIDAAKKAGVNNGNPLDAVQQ

biotin mimicking peptide CHPQGPPC (SEQ ID NO: 31) [ccstreptag]
Kd (streptavidin): 230 nM

biotin mimicking peptide DVEAWLDERVPLVET (SEQ ID NO: 26) (Biotin mimicking peptide, long nanotag)
Kd (streptavidin): 3.6 nM

Runx3 and CBFbeta: transcription factors Runx3 (SEQ ID No. 13) and CBF beta (SEQ ID No. 22), co-expressed with anti-CD19 CAR in T cells
CD62L expression (T cells; after transduction (day 0) and 6 days after the 24 hour co-culture): upregulation of CD62L

biotin mimicking peptide WSHPQFEK (SEQ ID NO: 29) [streptagII]
Kd (streptavidin): 72000 nM

biotin mimicking peptide DVEAWLGAR (SEQ ID NO: 27) (Biotin mimicking peptide, short nanotag)
Kd (streptavidin): 17 nM

BACH2 S520A: mutant Bach2 with S to A substitution at position 520 (SEQ ID No. 9), co-expressed with anti-CD19 CAR
proportion of naive and central memory cells (CM) (T cells): increase in the proportion of nave and central memory cells (CM)

BACH2: Bach2 wild type transcription factor (SEQ ID No. 8), co-expressed with anti-CD19 CAR in T cells
proportion of naive and central memory cells (CM) (T cells): increase in the proportion of nave and central memory cells (CM)

B1: FOXO1: Forkhead box protein O1 transcription factor (SEQ ID No. 12), co-expressed with anti-CD19 CAR in T cells (protein, listed as Homo sapiens)
chain: MAEAPQVVEIDPDFEPLPRPRSCTWPLPRPEFSQSNSATSSPAPSGSAAANPDAAAGLPSASAAAVSADFMSNLSLLEESEDFPQAPGSVAAAVAAAAAAAATGGLCGDFQGPEAGCLHPAPPQPPPPGPLSQHPPVPPAAAGPLAGQPRKSSSSRRNAWGNLSYADLITKAIESSAEKRLTLSQIYEWMVKSVPYFKDKGDSNSSAGWKNSIRHNLSLHSKFIRVQNEGTGKSSWWMLNPEGGKSGKSPRRRAASMDNNSKFAKSRSRAAKKKASLQSGQEGAGDSPGSQFSKWPASPGSHSNDDFDNWSTFRPRTSSNASTISGRLSPIMTEQDDLGEGDVHSMVYPPSAAKMASTLPSLSEISNPENMENLLDNLNLLSSPTSLTVSTQSSPGTMMQQTPCYSFAPPNTSLNSPSPNYQKYTYGQSSMSPLPQMPIQTLQDNKSSYGGMSQYNCAPGLLKELLTSDSPPHNDIMTPVDPGVAQPNSRVLGQNVMMGPNSVMSTYGSQASHNKMMNPSSHTHPGHAQQTSAVNGRPLPHTVSTMPHTSGMNRLTQVKTPVQVPLPHPMQMSALGGYSSVSSCNGYGRMGLLHQEKLPSDLDGMFIERLDCDMESIIRNDLMDGDTLDFNFDNVLPNQSFPHSVKTTTHSWVSG
CD27 expression (T cells; [1]): upregulation of CD27, especially on CD8+ cells
CD62L expression (T cells; [1]): significant upregulation of CD62L
proportion of naive and central memory cells (CM) (T cells): greater proportion of nave and central memory cells (CM)

B2: EOMES: Eomesodermin transcription factor (SEQ ID No. 11), co-expressed with anti-CD19 CAR in T cells (protein, UniProt O95936 1-686, looked up)
Eomesodermin homolog: MQLGEQLLVSSVNLPGAHFYPLESARGGSGGSAGHLPSAAPSPQKLDLDKASKKFSGSLSCEAVSGEPAAASAGAPAAMLSDTDAGDAFASAAAVAKPGPPDGRKGSPCGEEELPSAAAAAAAAAAAAAATARYSMDSLSSERYYLQSPGPQGSELAAPCSLFPYQAAAGAPHGPVYPAPNGARYPYGSMLPPGGFPAAVCPPGRAQFGPGAGAGSGAGGSSGGGGGPGTYQYSQGAPLYGPYPGAAAAGSCGGLGGLGVPGSGFRAHVYLCNRPLWLKFHRHQTEMIITKQGRRMFPFLSFNINGLNPTAHYNVFVEVVLADPNHWRFQGGKWVTCGKADNNMQGNKMYVHPESPNTGSHWMRQEISFGKLKLTNNKGANNNNTQMIVLQSLHKYQPRLHIVEVTEDGVEDLNEPSKTQTFTFSETQFIAVTAYQNTDITQLKIDHNPFAKGFRDNYDSSHQIVPGGRYGVQSFFPEPFVNTLPQARYYNGERTVPQTNGLLSPQQSEEVANPPQRWLVTPVQQPGTNKLDISSYESEYTSSTLLPYGIKSLPLQTSHALGYYPDPTFPAMAGWGGRGSYQRKMAAGLPWTSRTSPTVFSEDQLSKEKVKEEIGSSWIETPPSIKSLDSNDSGVYTSACKRRRLSPSNSSNENSPSIKCEDINAEEYSKDTSKGMGGYYAFYTTP
modifications: co-expressed with anti-CD19 CAR
CD27 expression (T cells; [1]): significant upregulation of CD27
CD62L expression (T cells; [1]): do not show significant up-regulation of CD62L
